# Measurements reported in patent US20260015399A1 (Boehringer Ingelheim, published 2026).
# *1 amine or outer side, *2 acyl side, *3 side chain or, on linkers, in order; H or OH if unused. Side-chain parts run from the residue outwards. The star is where a group is joined. C18 diacid = O=C(O)CCCCCCCCCCCCCCCCC(=O)*; γGlu = O=C(O)[C@H](CCC(=O)[*:2])N[*:1]; Isovaleryl = CC(C)CC(=O)*; Ahx = NCCCCCC(=O)O
# T1: human NPY2 receptor (human, UniProt P49146 1-381)
# T1 construct: whole, on cells; also called hNPY2-R; hNPY2R
# T1 sequence (looked up): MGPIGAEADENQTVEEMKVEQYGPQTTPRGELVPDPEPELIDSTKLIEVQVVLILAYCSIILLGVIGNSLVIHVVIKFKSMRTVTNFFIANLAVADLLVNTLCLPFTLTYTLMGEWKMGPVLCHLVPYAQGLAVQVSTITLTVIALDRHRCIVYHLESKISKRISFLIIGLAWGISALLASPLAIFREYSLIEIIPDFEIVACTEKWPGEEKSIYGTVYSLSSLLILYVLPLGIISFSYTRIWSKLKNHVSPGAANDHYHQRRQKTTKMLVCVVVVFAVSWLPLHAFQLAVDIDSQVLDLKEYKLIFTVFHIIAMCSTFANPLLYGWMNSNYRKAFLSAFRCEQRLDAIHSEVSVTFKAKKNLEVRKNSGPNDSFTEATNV
# B1: Compound 156 (peptide)
# peptide: Isovaleryl-APEK([Ahx-γGlu-C18 diacid])PEEAAEPEEIQRYYVALRHYYNWLTRQRY-NH2
# SMILES: CC[C@H](C)[C@H](NC(=O)[C@H](CCC(=O)O)NC(=O)[C@H](CCC(=O)O)NC(=O)[C@@H]1CCCN1C(=O)[C@H](CCC(=O)O)NC(=O)[C@H](C)NC(=O)[C@H](C)NC(=O)[C@H](CCC(=O)O)NC(=O)[C@H](CCC(=O)O)NC(=O)[C@@H]1CCCN1C(=O)[C@H](CCCCNC(=O)CCCCCNC(=O)CC[C@H](NC(=O)CCCCCCCCCCCCCCCCC(=O)O)C(=O)O)NC(=O)[C@H](CCC(=O)O)NC(=O)[C@@H]1CCCN1C(=O)[C@H](C)NC(=O)CC(C)C)C(=O)N[C@@H](CCC(N)=O)C(=O)N[C@@H](CCCNC(=N)N)C(=O)N[C@@H](Cc1ccc(O)cc1)C(=O)N[C@@H](Cc1ccc(O)cc1)C(=O)N[C@H](C(=O)N[C@@H](C)C(=O)N[C@@H](CC(C)C)C(=O)N[C@@H](CCCNC(=N)N)C(=O)N[C@@H](Cc1c[nH]cn1)C(=O)N[C@@H](Cc1ccc(O)cc1)C(=O)N[C@@H](Cc1ccc(O)cc1)C(=O)N[C@@H](CC(N)=O)C(=O)N[C@@H](Cc1c[nH]c2ccccc12)C(=O)N[C@@H](CC(C)C)C(=O)N[C@H](C(=O)N[C@@H](CCCNC(=N)N)C(=O)N[C@@H](CCC(N)=O)C(=O)N[C@@H](CCCNC(=N)N)C(=O)N[C@@H](Cc1ccc(O)cc1)C(N)=O)[C@@H](C)O)C(C)C
# B2: Compound 157 (peptide)
# peptide: Isovaleryl-APAK([Ahx-γGlu-C18 diacid])PEEAASPEELQRYYVALRHYYNWLTRQRY-NH2
# SMILES: CC(C)CC(=O)N[C@@H](C)C(=O)N1CCC[C@H]1C(=O)N[C@@H](C)C(=O)N[C@@H](CCCCNC(=O)CCCCCNC(=O)CC[C@H](NC(=O)CCCCCCCCCCCCCCCCC(=O)O)C(=O)O)C(=O)N1CCC[C@H]1C(=O)N[C@@H](CCC(=O)O)C(=O)N[C@@H](CCC(=O)O)C(=O)N[C@@H](C)C(=O)N[C@@H](C)C(=O)N[C@@H](CO)C(=O)N1CCC[C@H]1C(=O)N[C@@H](CCC(=O)O)C(=O)N[C@@H](CCC(=O)O)C(=O)N[C@@H](CC(C)C)C(=O)N[C@@H](CCC(N)=O)C(=O)N[C@@H](CCCNC(=N)N)C(=O)N[C@@H](Cc1ccc(O)cc1)C(=O)N[C@@H](Cc1ccc(O)cc1)C(=O)N[C@H](C(=O)N[C@@H](C)C(=O)N[C@@H](CC(C)C)C(=O)N[C@@H](CCCNC(=N)N)C(=O)N[C@@H](Cc1c[nH]cn1)C(=O)N[C@@H](Cc1ccc(O)cc1)C(=O)N[C@@H](Cc1ccc(O)cc1)C(=O)N[C@@H](CC(N)=O)C(=O)N[C@@H](Cc1c[nH]c2ccccc12)C(=O)N[C@@H](CC(C)C)C(=O)N[C@H](C(=O)N[C@@H](CCCNC(=N)N)C(=O)N[C@@H](CCC(N)=O)C(=O)N[C@@H](CCCNC(=N)N)C(=O)N[C@@H](Cc1ccc(O)cc1)C(N)=O)[C@@H](C)O)C(C)C
# B3: Compound 158 (peptide)
# peptide: Isovaleryl-APEK([Ahx-γGlu-C18 diacid])PPEAASPEEIQRYYVALRHYYNWLTRQRY-NH2
# SMILES: CC[C@H](C)[C@H](NC(=O)[C@H](CCC(=O)O)NC(=O)[C@H](CCC(=O)O)NC(=O)[C@@H]1CCCN1C(=O)[C@H](CO)NC(=O)[C@H](C)NC(=O)[C@H](C)NC(=O)[C@H](CCC(=O)O)NC(=O)[C@@H]1CCCN1C(=O)[C@@H]1CCCN1C(=O)[C@H](CCCCNC(=O)CCCCCNC(=O)CC[C@H](NC(=O)CCCCCCCCCCCCCCCCC(=O)O)C(=O)O)NC(=O)[C@H](CCC(=O)O)NC(=O)[C@@H]1CCCN1C(=O)[C@H](C)NC(=O)CC(C)C)C(=O)N[C@@H](CCC(N)=O)C(=O)N[C@@H](CCCNC(=N)N)C(=O)N[C@@H](Cc1ccc(O)cc1)C(=O)N[C@@H](Cc1ccc(O)cc1)C(=O)N[C@H](C(=O)N[C@@H](C)C(=O)N[C@@H](CC(C)C)C(=O)N[C@@H](CCCNC(=N)N)C(=O)N[C@@H](Cc1c[nH]cn1)C(=O)N[C@@H](Cc1ccc(O)cc1)C(=O)N[C@@H](Cc1ccc(O)cc1)C(=O)N[C@@H](CC(N)=O)C(=O)N[C@@H](Cc1c[nH]c2ccccc12)C(=O)N[C@@H](CC(C)C)C(=O)N[C@H](C(=O)N[C@@H](CCCNC(=N)N)C(=O)N[C@@H](CCC(N)=O)C(=O)N[C@@H](CCCNC(=N)N)C(=O)N[C@@H](Cc1ccc(O)cc1)C(N)=O)[C@@H](C)O)C(C)C
# B4: Compound 159 (peptide)
# peptide: Isovaleryl-APEK([Ahx-γGlu-C18 diacid])PEADAEPEELQRYYISLRHYYNWLTRQRY-NH2
# SMILES: CC[C@H](C)[C@H](NC(=O)[C@H](Cc1ccc(O)cc1)NC(=O)[C@H](Cc1ccc(O)cc1)NC(=O)[C@H](CCCNC(=N)N)NC(=O)[C@H](CCC(N)=O)NC(=O)[C@H](CC(C)C)NC(=O)[C@H](CCC(=O)O)NC(=O)[C@H](CCC(=O)O)NC(=O)[C@@H]1CCCN1C(=O)[C@H](CCC(=O)O)NC(=O)[C@H](C)NC(=O)[C@H](CC(=O)O)NC(=O)[C@H](C)NC(=O)[C@H](CCC(=O)O)NC(=O)[C@@H]1CCCN1C(=O)[C@H](CCCCNC(=O)CCCCCNC(=O)CC[C@H](NC(=O)CCCCCCCCCCCCCCCCC(=O)O)C(=O)O)NC(=O)[C@H](CCC(=O)O)NC(=O)[C@@H]1CCCN1C(=O)[C@H](C)NC(=O)CC(C)C)C(=O)N[C@@H](CO)C(=O)N[C@@H](CC(C)C)C(=O)N[C@@H](CCCNC(=N)N)C(=O)N[C@@H](Cc1c[nH]cn1)C(=O)N[C@@H](Cc1ccc(O)cc1)C(=O)N[C@@H](Cc1ccc(O)cc1)C(=O)N[C@@H](CC(N)=O)C(=O)N[C@@H](Cc1c[nH]c2ccccc12)C(=O)N[C@@H](CC(C)C)C(=O)N[C@H](C(=O)N[C@@H](CCCNC(=N)N)C(=O)N[C@@H](CCC(N)=O)C(=O)N[C@@H](CCCNC(=N)N)C(=O)N[C@@H](Cc1ccc(O)cc1)C(N)=O)[C@@H](C)O
# B5: Compound 161 (peptide)
# peptide: Isovaleryl-APAK([Ahx-γGlu-C18 diacid])PEEAAEPEELQRYYVALRHYYNWLTRQRY-NH2
# SMILES: CC(C)CC(=O)N[C@@H](C)C(=O)N1CCC[C@H]1C(=O)N[C@@H](C)C(=O)N[C@@H](CCCCNC(=O)CCCCCNC(=O)CC[C@H](NC(=O)CCCCCCCCCCCCCCCCC(=O)O)C(=O)O)C(=O)N1CCC[C@H]1C(=O)N[C@@H](CCC(=O)O)C(=O)N[C@@H](CCC(=O)O)C(=O)N[C@@H](C)C(=O)N[C@@H](C)C(=O)N[C@@H](CCC(=O)O)C(=O)N1CCC[C@H]1C(=O)N[C@@H](CCC(=O)O)C(=O)N[C@@H](CCC(=O)O)C(=O)N[C@@H](CC(C)C)C(=O)N[C@@H](CCC(N)=O)C(=O)N[C@@H](CCCNC(=N)N)C(=O)N[C@@H](Cc1ccc(O)cc1)C(=O)N[C@@H](Cc1ccc(O)cc1)C(=O)N[C@H](C(=O)N[C@@H](C)C(=O)N[C@@H](CC(C)C)C(=O)N[C@@H](CCCNC(=N)N)C(=O)N[C@@H](Cc1c[nH]cn1)C(=O)N[C@@H](Cc1ccc(O)cc1)C(=O)N[C@@H](Cc1ccc(O)cc1)C(=O)N[C@@H](CC(N)=O)C(=O)N[C@@H](Cc1c[nH]c2ccccc12)C(=O)N[C@@H](CC(C)C)C(=O)N[C@H](C(=O)N[C@@H](CCCNC(=N)N)C(=O)N[C@@H](CCC(N)=O)C(=O)N[C@@H](CCCNC(=N)N)C(=O)N[C@@H](Cc1ccc(O)cc1)C(N)=O)[C@@H](C)O)C(C)C
# B6: Compound 162 (peptide)
# peptide: Isovaleryl-APEK([Ahx-γGlu-C18 diacid])PEEDATPEEEQRYYVSLRHYYNWLTRQRY-NH2
# SMILES: CC(C)CC(=O)N[C@@H](C)C(=O)N1CCC[C@H]1C(=O)N[C@@H](CCC(=O)O)C(=O)N[C@@H](CCCCNC(=O)CCCCCNC(=O)CC[C@H](NC(=O)CCCCCCCCCCCCCCCCC(=O)O)C(=O)O)C(=O)N1CCC[C@H]1C(=O)N[C@@H](CCC(=O)O)C(=O)N[C@@H](CCC(=O)O)C(=O)N[C@@H](CC(=O)O)C(=O)N[C@@H](C)C(=O)N[C@H](C(=O)N1CCC[C@H]1C(=O)N[C@@H](CCC(=O)O)C(=O)N[C@@H](CCC(=O)O)C(=O)N[C@@H](CCC(=O)O)C(=O)N[C@@H](CCC(N)=O)C(=O)N[C@@H](CCCNC(=N)N)C(=O)N[C@@H](Cc1ccc(O)cc1)C(=O)N[C@@H](Cc1ccc(O)cc1)C(=O)N[C@H](C(=O)N[C@@H](CO)C(=O)N[C@@H](CC(C)C)C(=O)N[C@@H](CCCNC(=N)N)C(=O)N[C@@H](Cc1c[nH]cn1)C(=O)N[C@@H](Cc1ccc(O)cc1)C(=O)N[C@@H](Cc1ccc(O)cc1)C(=O)N[C@@H](CC(N)=O)C(=O)N[C@@H](Cc1c[nH]c2ccccc12)C(=O)N[C@@H](CC(C)C)C(=O)N[C@H](C(=O)N[C@@H](CCCNC(=N)N)C(=O)N[C@@H](CCC(N)=O)C(=O)N[C@@H](CCCNC(=N)N)C(=O)N[C@@H](Cc1ccc(O)cc1)C(N)=O)[C@@H](C)O)C(C)C)[C@@H](C)O
# Target: T1, human NPY2 receptor
# Assay: RLB: displacement of 125I-PYY(1-36) from hNPY2R membranes
row,Binder,Ki [nM]
1,B1,4.2
2,B2,1.68
3,B3,0.58
4,B4,2.75
5,B5,4
6,B6,14.9
